Measured values taken from patent publication US20240352145A1, “EFFICACY OF ANTI-TROP-2-SN-38 ANTIBODY DRUG CONJUGATES FOR THERAPY OF TUMORS RELAPSED/REFRACTORY TO CHECKPOINT INHIBITORS” (Immunomedics, Inc., priority 2016, published 2024).
pIC50: −log10 of the molar value. Where two headings read alike, the source gives them in different places.

Key:
[1] = mouse, in vivo
Description: One group was injected intravenously with 20 μCi (250-μg protein) of ^111In-sacituzumab govitecan, whereas another group received 20 μCi (250-μg protein) of ^111In-hRS7 IgG. At various timepoints mice (5 per timepoint) were anesthetized, bled via intracardiac puncture, and then euthanized. Tumors and various tissues were removed, weighed, and counted by γ scintillation to determine the percentage injected dose per gram tissue (% ID/g). […] Pharmacokinetic analysis on blood clearance was performed using WinNonLin software (Parsight Corp.).

[2] = tested on: diverse metastatic cancers
Description: To optimize cumulative treatment with minimal delays, phase II is focusing on 8 and 10 mg/kg (n=30 and 14, respectively).
Two ELISA methods were used to measure the clearance of the IgG (capture with anti-hRS7 idiotype antibody) and the intact conjugate (capture with anti-SN-38 IgG/probe with anti-hRS7 idiotype antibody). SN-38 was measured by HPLC.

[3] = tested on: BxPC-3; test: Cytotoxicity (MTS), Example 7, BxPC-3; type: cell-based, human; conditions: BxPC-3, 96 h
Description: One day prior to adding the ADC, cells were harvested from tissue culture and plated into 96-well plates at 2000 cells per well. […] Plates were incubated at 37° C. for 96 h. […] Growth inhibition was measured as a percent of growth relative to untreated cells using Microsoft Excel and Prism software (non-linear regression to generate sigmoidal dose response curves which yield IC50-values).

[4] = tested on: Calu-3; test: In vitro cytotoxicity, Calu-3
Description: Cell lines, antibodies, and chemotherapeutics—All human cancer cell lines used in this study were purchased from the American Type Culture Collection.

[5] = esophageal cancer, 4 assessable patients

Substance: IMMU-132
- amount in tumor vs hRS7 IgG [1]: similar
- dose-limiting toxicity ([2]; 8, then 12 and 18 mg/kg, days 1 and 8 of 21-day cycles): dose-limiting neutropenia
- median TTP in PDC patients ([2]; 8 wks for preceding last therapy): 11.9 wks
- stable disease, PDC ([2]; 13 CT-assessable PDC patients): 62%
- patients with long-term stable disease ([2]; 24 assessable patients, Phase I study): Over 80%
- partial response (PR) ([2]; 48 assessable patients (excluding PDC), RECIST/CT): 15%
- maximum reduction ([2]; CRC case, after 10 months of treatment): 65%
- CEA after treatment ([2]; CRC case, from 781 ng/mL): 26.5 ng/mL
- PD, number of patients ([2]; CRC, 18 assessable patients): 6
- PR, number of patients ([2]; CRC, 18 assessable patients): 1
- total response [PR+SD] ([2]; CRC, 18 assessable patients): 67%
- PD, number of patients ([2]; NSCLC, 5 assessable patients): 1
- PR, number of patients ([2]; NSCLC, 5 assessable patients): 1
- total response [PR+SD] ([2]; NSCLC, 5 assessable patients): 80%
- PD, number of patients ([2]; SCLC, 4 assessable patients): 2
- PR, number of patients ([2]; SCLC, 4 assessable patients): 2
- total response [PR+SD] ([2]; SCLC, 4 assessable patients): 50%
- PD, number of patients ([2]; TNBC, 8 assessable patients): 2
- PR, number of patients ([2]; TNBC, 8 assessable patients): 2
- total response [PR+SD] ([2]; TNBC, 8 assessable patients): 75%
- PD, number of patients ([2]; all 48 assessable patients): 14
- PR, number of patients ([2]; all 48 assessable patients): 7
- total response [PR+SD] ([2]; all 48 assessable patients): 79%
- total response [PR+SD] ([2]; all 48 assessable patients, listed as hRS7-SN-38): 71%
- PD, number of patients [2, 5]: 1
- PR, number of patients [2, 5]: 1
- total response [PR+SD] [2, 5]: 75%
- time to clearance of conjugate from serum ([2]; human, in vivo): ≤ 3 days
- Abdominal pain, Grade 3, number of patients ([2]; in vivo): 0
- Abdominal pain, Grade 4, number of patients ([2]; in vivo): 0
- Abdominal pain, TOTAL ([2]; in vivo): 11%
- Alopecia, TOTAL ([2]; in vivo): 40%
- Anemia, Grade 3 ([2]; in vivo): (4%)
- Anemia, Grade 3, number of patients ([2]; in vivo): 2
- Anemia, Grade 4, number of patients ([2]; in vivo): 0
- Anemia, TOTAL ([2]; in vivo): 13%
- Deep vein thrombosis, Grade 3 ([2]; in vivo): (2%)
- Deep vein thrombosis, Grade 3, number of patients ([2]; in vivo): 1
- Deep vein thrombosis, Grade 4, number of patients ([2]; in vivo): 0
- Deep vein thrombosis, TOTAL ([2]; in vivo): 2%
- Diarrhea, Grade 3 ([2]; in vivo): (9%)
- Diarrhea, Grade 3, number of patients ([2]; in vivo): 4
- Diarrhea, Grade 4, number of patients ([2]; in vivo): 0
- Diarrhea, TOTAL ([2]; in vivo): 47%
- Dysgeusia, Grade 3, number of patients ([2]; in vivo): 0
- Dysgeusia, Grade 4, number of patients ([2]; in vivo): 0
- Dysgeusia, TOTAL ([2]; in vivo): 15%
- Fatigue, Grade 3 ([2]; in vivo): (9%)
- Fatigue, Grade 3, number of patients ([2]; in vivo): 4
- Fatigue, Grade 4, number of patients ([2]; in vivo): 0
- Fatigue, TOTAL ([2]; in vivo): 55%
- Hypokalemia, Grade 3 ([2]; in vivo): (2%)
- Hypokalemia, Grade 3, number of patients ([2]; in vivo): 1
- Hypokalemia, Grade 4, number of patients ([2]; in vivo): 0
- Hypokalemia, TOTAL ([2]; in vivo): 11%
- Nausea, Grade 3, number of patients ([2]; in vivo): 0
- Nausea, Grade 4, number of patients ([2]; in vivo): 0
- Nausea, TOTAL ([2]; in vivo): 53%
- Neutropenia, Grade 3 ([2]; in vivo): (24%)
- Neutropenia, Grade 3, number of patients ([2]; in vivo): 11
- Neutropenia, Grade 4, number of patients (%) ([2]; in vivo): 2 (4%)
- Neutropenia, TOTAL ([2]; in vivo): 43%
- Pyrexia, Grade 3, number of patients ([2]; in vivo): 0
- Pyrexia, Grade 4, number of patients ([2]; in vivo): 0
- Pyrexia, TOTAL ([2]; in vivo): 13%
- SN-38 in the serum bound to the IgG ([2]; in vivo): > 95%
- Vomiting, Grade 3 ([2]; in vivo): (2%)
- Vomiting, Grade 3, number of patients ([2]; in vivo): 1
- Vomiting, Grade 4, number of patients ([2]; in vivo): 0
- Vomiting, TOTAL ([2]; in vivo): 32%
- WBC Decrease, Grade 3 ([2]; in vivo): (2%)
- WBC Decrease, Grade 3, number of patients ([2]; in vivo): 1
- WBC Decrease, Grade 4, number of patients ([2]; in vivo): 0
- WBC Decrease, TOTAL ([2]; in vivo): 6%
- anti-hRS7 or anti-SN-38 antibodies ([2]; in vivo): No anti-hRS7 or anti-SN-38 antibodies were detected
- anti-hRS7 or anti-SN-38 antibody response ([2]; in vivo): no anti-hRS7 or anti-SN-38 antibody response has been detected
- clearance of intact conjugate vs IgG ([2]; in vivo): cleared more quickly than the IgG
- diarrhea ≥G3 ([2]; in vivo): 9%
- fatigue ≥G3 ([2]; in vivo): 9%
- incidence of Grade 3 or higher, all other adverse events ([2]; in vivo): less than 10%
- median time to progression (TTP), PDC ([2]; in vivo): 12.7 wks
- nausea ≥G3 ([2]; in vivo): 0%
- neutropenia Grade 4 ([2]; in vivo): 4%
- neutropenia ≥Grade 3 ([2]; in vivo): 28%
- vomiting ≥G3 ([2]; in vivo): 2%
- reduction in target lesions, first CT ([2]; person, CRC, 8 mg/kg): 37%
- primary target lesion size at first CT ([2]; person, NSCLC, 5.6 cm at start, after 6th dose): 3.2 cm
- reduction in target lesions ([2]; person, SCLC, 12 mg/kg reduced to 6.8 mg/kg, after two months): 38%
- TTP ([2]; remaining 48 patients): ≥ 12.6 wks
- pIC50 [3]: 8.24
- pIC50 [4]: 8.00
